Our source for the IC50 values is patent US20140087995A1 (published 2014).

The chains are these.
B1: N^α1-[(4S)-4-carboxy-4-(19-carboxynonadecanoylamino)butanoyl]-[Arg17,Pro21,Pro27,Arg34]-h-amylin (peptide)
peptide: KCNTATCATQRLANFLRHSSPNFGAIPSSTNVGRNTY
modifications: C20 diacid-gGlu on alpha amino group of N-terminal Lys 1; Cys2-Cys7 disulfide; C-terminal amide
notes: also called 39; compound 39
B2: N^α1-[2-[2-[2-[[2-[2-[2-[[(4S)-4-carboxy-4-(19-carboxynonadecanoylamino)butanoyl]amino]ethoxy]ethoxy]acetyl]amino]ethoxy]ethoxy]acetyl]-[Glu14,Arg17,Pro21,Pro27 … (peptide)
peptide: {C20 diacid-γGlu-AEEA-AEEA}-KCNTATCATQRLAEFLRHSSPNFGAIPSSTNVGSNTP-NH2
modifications: disulfide 2-7
SMILES: CC[C@H](C)[C@H](NC(=O)[C@H](C)NC(=O)CNC(=O)[C@H](Cc1ccccc1)NC(=O)[C@H](CC(N)=O)NC(=O)[C@@H]1CCCN1C(=O)[C@H](CO)NC(=O)[C@H](CO)NC(=O)[C@H](Cc1c[nH]cn1)NC(=O)[C@H](CCCNC(=N)N)NC(=O)[C@H](CC(C)C)NC(=O)[C@H](Cc1ccccc1)NC(=O)[C@H](CCC(=O)O)NC(=O)[C@H](C)NC(=O)[C@H](CC(C)C)NC(=O)[C@H](CCCNC(=N)N)NC(=O)[C@H](CCC(N)=O)NC(=O)[C@@H](NC(=O)[C@H](C)NC(=O)[C@@H]1CSSC[C@H](NC(=O)[C@H](CCCCN)NC(=O)COCCOCCNC(=O)COCCOCCNC(=O)CC[C@H](NC(=O)CCCCCCCCCCCCCCCCCCC(=O)O)C(=O)O)C(=O)N[C@@H](CC(N)=O)C(=O)N[C@@H]([C@@H](C)O)C(=O)N[C@@H](C)C(=O)N[C@@H]([C@@H](C)O)C(=O)N1)[C@@H](C)O)C(=O)N1CCC[C@H]1C(=O)N[C@@H](CO)C(=O)N[C@@H](CO)C(=O)N[C@H](C(=O)N[C@@H](CC(N)=O)C(=O)N[C@H](C(=O)NCC(=O)N[C@@H](CO)C(=O)N[C@@H](CC(N)=O)C(=O)N[C@H](C(=O)N1CCC[C@H]1C(N)=O)[C@@H](C)O)C(C)C)[C@@H](C)O
notes: also called 20; compound 20
B3: N^ε-[(4S)-4-carboxy-4-(19-carboxynonadecanoylamino)butanoyl]Lys[Arg1,Arg17,Pro21,Pro27,His35]-h-amylin (peptide)
peptide: K([γGlu-C20 diacid])RCNTATCATQRLANFLRHSSPNFGAIPSSTNVGSHTY-NH2
modifications: disulfide 3-8; N-terminus assumed
SMILES: CC[C@H](C)[C@H](NC(=O)[C@H](C)NC(=O)CNC(=O)[C@H](Cc1ccccc1)NC(=O)[C@H](CC(N)=O)NC(=O)[C@@H]1CCCN1C(=O)[C@H](CO)NC(=O)[C@H](CO)NC(=O)[C@H](Cc1c[nH]cn1)NC(=O)[C@H](CCCNC(=N)N)NC(=O)[C@H](CC(C)C)NC(=O)[C@H](Cc1ccccc1)NC(=O)[C@H](CC(N)=O)NC(=O)[C@H](C)NC(=O)[C@H](CC(C)C)NC(=O)[C@H](CCCNC(=N)N)NC(=O)[C@H](CCC(N)=O)NC(=O)[C@@H](NC(=O)[C@H](C)NC(=O)[C@@H]1CSSC[C@H](NC(=O)[C@H](CCCNC(=N)N)NC(=O)[C@@H](N)CCCCNC(=O)CC[C@H](NC(=O)CCCCCCCCCCCCCCCCCCC(=O)O)C(=O)O)C(=O)N[C@@H](CC(N)=O)C(=O)N[C@@H]([C@@H](C)O)C(=O)N[C@@H](C)C(=O)N[C@@H]([C@@H](C)O)C(=O)N1)[C@@H](C)O)C(=O)N1CCC[C@H]1C(=O)N[C@@H](CO)C(=O)N[C@@H](CO)C(=O)N[C@H](C(=O)N[C@@H](CC(N)=O)C(=O)N[C@H](C(=O)NCC(=O)N[C@@H](CO)C(=O)N[C@@H](Cc1c[nH]cn1)C(=O)N[C@H](C(=O)N[C@@H](Cc1ccc(O)cc1)C(N)=O)[C@@H](C)O)C(C)C)[C@@H](C)O
notes: also called -1K, 1R, 17R, 21P, 27P, 35H
B4: N{-1}-[(4S)-4-carboxy-4-(19-carboxynonadecanoylamino)butanoyl]-Gly[Arg1,His14,Arg17,Pro21,Pro27]-h-amylin (peptide)
peptide: {C20 diacid-γGlu}-GRCNTATCATQRLAHFLRHSSPNFGAIPSSTNVGSNTY-NH2
modifications: disulfide 3-8
SMILES: CC[C@H](C)[C@H](NC(=O)[C@H](C)NC(=O)CNC(=O)[C@H](Cc1ccccc1)NC(=O)[C@H](CC(N)=O)NC(=O)[C@@H]1CCCN1C(=O)[C@H](CO)NC(=O)[C@H](CO)NC(=O)[C@H](Cc1c[nH]cn1)NC(=O)[C@H](CCCNC(=N)N)NC(=O)[C@H](CC(C)C)NC(=O)[C@H](Cc1ccccc1)NC(=O)[C@H](Cc1c[nH]cn1)NC(=O)[C@H](C)NC(=O)[C@H](CC(C)C)NC(=O)[C@H](CCCNC(=N)N)NC(=O)[C@H](CCC(N)=O)NC(=O)[C@@H](NC(=O)[C@H](C)NC(=O)[C@@H]1CSSC[C@H](NC(=O)[C@H](CCCNC(=N)N)NC(=O)CNC(=O)CC[C@H](NC(=O)CCCCCCCCCCCCCCCCCCC(=O)O)C(=O)O)C(=O)N[C@@H](CC(N)=O)C(=O)N[C@@H]([C@@H](C)O)C(=O)N[C@@H](C)C(=O)N[C@@H]([C@@H](C)O)C(=O)N1)[C@@H](C)O)C(=O)N1CCC[C@H]1C(=O)N[C@@H](CO)C(=O)N[C@@H](CO)C(=O)N[C@H](C(=O)N[C@@H](CC(N)=O)C(=O)N[C@H](C(=O)NCC(=O)N[C@@H](CO)C(=O)N[C@@H](CC(N)=O)C(=O)N[C@H](C(=O)N[C@@H](Cc1ccc(O)cc1)C(N)=O)[C@@H](C)O)C(C)C)[C@@H](C)O
notes: also called -1G, 1R, 14H, 17R, 21P, 27P
B5: N^ε1-[(4S)-4-carboxy-4-(19-carboxynonadecanoylamino)butanoyl]-[Arg17,Pro21,Pro27]-h-amylin (peptide)
peptide: K([γGlu-C20 diacid])CNTATCATQRLANFLRHSSPNFGAIPSSTNVGSNTY-NH2
modifications: disulfide 2-7; N-terminus assumed
SMILES: CC[C@H](C)[C@H](NC(=O)[C@H](C)NC(=O)CNC(=O)[C@H](Cc1ccccc1)NC(=O)[C@H](CC(N)=O)NC(=O)[C@@H]1CCCN1C(=O)[C@H](CO)NC(=O)[C@H](CO)NC(=O)[C@H](Cc1c[nH]cn1)NC(=O)[C@H](CCCNC(=N)N)NC(=O)[C@H](CC(C)C)NC(=O)[C@H](Cc1ccccc1)NC(=O)[C@H](CC(N)=O)NC(=O)[C@H](C)NC(=O)[C@H](CC(C)C)NC(=O)[C@H](CCCNC(=N)N)NC(=O)[C@H](CCC(N)=O)NC(=O)[C@@H](NC(=O)[C@H](C)NC(=O)[C@@H]1CSSC[C@H](NC(=O)[C@@H](N)CCCCNC(=O)CC[C@H](NC(=O)CCCCCCCCCCCCCCCCCCC(=O)O)C(=O)O)C(=O)N[C@@H](CC(N)=O)C(=O)N[C@@H]([C@@H](C)O)C(=O)N[C@@H](C)C(=O)N[C@@H]([C@@H](C)O)C(=O)N1)[C@@H](C)O)C(=O)N1CCC[C@H]1C(=O)N[C@@H](CO)C(=O)N[C@@H](CO)C(=O)N[C@H](C(=O)N[C@@H](CC(N)=O)C(=O)N[C@H](C(=O)NCC(=O)N[C@@H](CO)C(=O)N[C@@H](CC(N)=O)C(=O)N[C@H](C(=O)N[C@@H](Cc1ccc(O)cc1)C(N)=O)[C@@H](C)O)C(C)C)[C@@H](C)O
notes: also called 17R, 21P, 27P

Numbered stars: 1 amine (or outer) side, 2 acyl side, 3 side chain; on linkers, the order of the positions; unused ones are H or OH. Bridge positions count the residues as written; N and C are the ends. Side chains are listed from the residue outwards. Ends that are not written are not given here. * marks the point of attachment. C20 diacid = O=C(O)CCCCCCCCCCCCCCCCCCC(=O)*; γGlu = O=C(O)[C@H](CCC(=O)[*:2])N[*:1]; AEEA = NCCOCCOCC(=O)O

The target in one test is T1, human amylin receptor (amylin 3(a) receptor: human calcitonin receptor with RAMP-3) (human, UniProt P30988 25-474; O60896 24-148).
T1 construct: whole, on cells; also called hAmylin-R; hAmylinR
T1 sequence (looked up) 1: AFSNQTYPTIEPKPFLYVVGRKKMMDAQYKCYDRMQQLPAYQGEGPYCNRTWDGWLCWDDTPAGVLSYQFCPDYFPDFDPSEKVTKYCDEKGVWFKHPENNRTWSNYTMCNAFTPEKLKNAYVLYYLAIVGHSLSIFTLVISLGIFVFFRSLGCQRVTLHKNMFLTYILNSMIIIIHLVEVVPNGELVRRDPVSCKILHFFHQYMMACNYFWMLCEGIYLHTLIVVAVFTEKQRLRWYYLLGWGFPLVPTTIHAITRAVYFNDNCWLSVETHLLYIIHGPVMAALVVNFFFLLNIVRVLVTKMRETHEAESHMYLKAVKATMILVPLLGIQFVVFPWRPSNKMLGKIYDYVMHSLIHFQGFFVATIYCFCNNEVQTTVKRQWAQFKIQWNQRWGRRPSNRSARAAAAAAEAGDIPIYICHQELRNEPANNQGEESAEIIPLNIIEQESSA
T1 sequence (looked up) 2: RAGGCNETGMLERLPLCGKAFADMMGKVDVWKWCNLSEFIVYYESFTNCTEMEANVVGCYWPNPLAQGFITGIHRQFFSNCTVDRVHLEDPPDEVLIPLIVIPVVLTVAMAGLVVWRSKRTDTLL
Kind of test: SPA displacement of 125I-rat amylin, hAmylin 3(a) receptor membranes. As for the experimental part:
The binding assay was performed using scintillation proximity assay (SPA) beads (RPNQ0001) from PerkinElmer and cell membranes from the Amylin 3(a)/CRE-luc cells (as described in Assay (II)) were used. Membranes were prepared in the following way; the cells were rinsed with PBS and incubated with Versene for approximately 5 min before harvesting. The cells were flushed with PBS and the cell-suspension was centrifuged for 5 min at 1000 rpm. Cells were homogenized (ultrathurrax) in a buffer containing 20 mM Na-HEPES and 10 mM EDTA (pH 7.4) and centrifuged at 20.000 rpm for 15 min. The resulting pellet was resuspended, homogenized and centrifuged (20.000 rpm, 15 min) in a buffer containing 20 mM Na-HEPES and 0.1 mM EDTA (pH 7.4, buffer 2). The resulting pellet was resuspended in buffer 2 and protein concentration was measured (BCA protein Assay, Pierce). The homogenate was kept cold during the whole procedure. The membranes were kept at −80° C. until use. The assay was performed in a 384 well Optiplate (PerkinElmer) in a total volume of 40 ul. Membranes were mixed with SPA beads. Final concentration of membranes 35 ng/μL final and SPA beads was 0.05 mg/well. Test-compounds were dissolved in DMSO and further diluted in assay buffer (50 mM Hepes, pH 7.4, 1 mM CaCl2, 5 mM MgCl₂, 0.1% OA and 0.02% Tween20). […] The final mixture was incubated with shaking at 400 rpm for 120 min at 25° C. prior to centrifugation (1500 rpm, 10 min). Samples were analyzed on TopCounter™ (Packard). The IC₅₀ was calculated using (one site binding competition analysis) GraphPad Prism5 as a measure of receptor affinity.
As usually defined, the IC50 is the point on the concentration scale where inhibition reaches its midpoint. With B1, the IC50 was determined as 0.665 nM.
Take B2: the concentration for half-maximal inhibition (IC50) was 0.217 nM.

The target in a further test is T2, human amylin receptor (human, UniProt P30988 25-474; O60896 24-148, limits assumed).
T2 construct: whole, on cells; Calcitonin receptor plus RAMP-3 gives the amylin 3(a) receptor; membranes of Amylin 3(a)/CRE-luc cells were used; also called hAmylin-R; hAmylinR
T2 sequence (looked up) 1: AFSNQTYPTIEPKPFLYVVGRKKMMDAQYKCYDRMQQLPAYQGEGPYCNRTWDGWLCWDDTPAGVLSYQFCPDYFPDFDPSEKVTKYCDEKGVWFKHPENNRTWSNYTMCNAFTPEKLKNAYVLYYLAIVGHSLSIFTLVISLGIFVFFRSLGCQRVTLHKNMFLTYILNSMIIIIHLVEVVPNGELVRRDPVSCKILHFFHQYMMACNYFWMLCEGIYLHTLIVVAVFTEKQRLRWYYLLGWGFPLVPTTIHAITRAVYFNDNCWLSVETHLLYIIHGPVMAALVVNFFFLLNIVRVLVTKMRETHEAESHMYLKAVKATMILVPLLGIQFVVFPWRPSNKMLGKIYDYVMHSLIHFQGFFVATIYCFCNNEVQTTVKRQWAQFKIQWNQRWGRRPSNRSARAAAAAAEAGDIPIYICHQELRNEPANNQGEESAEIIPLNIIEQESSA
T2 sequence (looked up) 2: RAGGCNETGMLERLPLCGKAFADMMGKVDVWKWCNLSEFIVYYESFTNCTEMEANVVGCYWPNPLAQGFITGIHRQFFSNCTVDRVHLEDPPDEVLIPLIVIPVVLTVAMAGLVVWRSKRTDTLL
Description: SPA competition binding, displacement of 125I-rat amylin from membranes with human amylin 3(a) receptor (Assay V). Summed up:
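SPA beads + BHK amylin 3(a)/CRE-luc membranes, 35 ng/μL final; buffer 50 mM Hepes pH 7.4, 1 mM CaCl2, 5 mM MgCl₂, 0.1% OA, 0.02% Tween20. 120 min, 25° C, shaken; scintillation count. IC₅₀ by one-site binding competition fit, taken as receptor affinity.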
B3 showed a concentration for half-maximal inhibition (IC50) of 0.275 nM.
B4 yielded an IC50 of 0.348 nM.
In turn, B5 registered an IC50 of 0.443 nM.
